B1: mRNA-splicing (parent)
chain: AGUUGCUGCUGGGAGCUCCAGCACAGUGAAAUGGACAGAAGGGCAGAGCAA

Variants of: B1
Experiment: exon inclusion enrichment index; higher = more inclusion; WT1 exon 5 minigene, HEK293

Row | Variant | exon inclusion enrichment index
1 | AGUUAGGGAUGGGAGCUCCAGCACAGUGCGAUGGACAGAAGGGCAGAGCAA [G5A C6G U7G C9A A29C A30G] | 0.0167
2 | AGUUAGGGAUGGGAGCUCCAGCACAGUGAAAUGGACAGAAAAGCAGAGCAA [G5A C6G U7G C9A G41A G42A] | 0.0013
3 | AGCCCACACAGGGAGCUCCAGCACAGUGAAAUGGACAGAAGGGCAGAGCAA [U3C U4C G5C C6A U7C G8A U10A] | 0.144
4 | AGUUAGGGAUGGGAGCUCCAGCACAGUGAAUAGGACAGAAGGGCAGAGCAA [G5A C6G U7G C9A A31U U32A] | 0.000867
5 | AGUUGAAGAAGGGAGCUCCAGCACAGUGAAAUGGACAGAAUGGCAGAGCAA [C6A U7A C9A U10A G41U] | 0.866
6 | AGUUGCUGCUGGGAGCUCCCACACAGUGAAAUGGACAGAAGGGCAGAGCAA [A20C G21A] | 1.19
7 | AGUUCACACAGGGAGCUCCAGCACAGUGAAAUGGACAGUCGGGCAGAGCAA [G5C C6A U7C G8A U10A A39U A40C] | 0.195
8 | AGUUACCACCAUGAGCUCCAGCACAGUGAAAUGGACAGAAGGGCAGAGCAA [G5A U7C G8A U10C G11A G12U] | 0.486
9 | AGUUUCUUUUGGGAGCUCCAGGUCAGUGAAAUGGACAGAAGGGCAGAGCAA [G5U G8U C9U C22G A23U] | 0.0132
10 | AGUUCGCUGCGGGAGCUCCAGCACAGUGAAAUGGACAGAAGGGCAGAGCAA [G5C C6G U7C G8U C9G U10C] | 2.53
11 | AGUUCUUCUCGGGAGCUCCAGCACAGUGAAAUGGACAGCCGGGCAGAGCAA [G5C C6U G8C C9U U10C A39C A40C] | 2.43
12 | AGUUCUUCUCGGUGGCUCCAGCACAGUGAAAUGGACAGAAGGGCAGAGCAA [G5C C6U G8C C9U U10C G13U A14G] | 0.52
13 | AGUUGACGACGGGAGCUCCAGCACAGUGAAAUGGACAGACAGGCAGAGCAA [C6A U7C C9A U10C A40C G41A] | 1.84
14 | AGUUAUAUAUGGGAGCUCCAGCACAGUGAAAUGGACAGAAGGGCAGGCCAA [G5A C6U U7A G8U C9A A47G G48C] | 0.0173
15 | AGUUACCACCGGGAGCUCCUGCACAGUGAAAUGGACAGAAGGGCAGAGCAA [G5A U7C G8A U10C A20U] | 2.38
16 | AGUUGCUGCUGGGAGCUCCACUACAGUGAAAUGGACAGAAGGGCAGAGCAA [G21C C22U] | 2.41
17 | AGUUGCUGCUGGGAGCUCCAGCACAGUGAAAUGGACAGAAGGGCAGCUCAA [A47C G48U] | 0.173
18 | AGUUCGCGCCGGGAGCUCCAGGACAGUGAAAUGGACAGAAGGGCAGAGCAA [G5C C6G U7C U10C C22G] | 3.75
19 | AGUUACCACCGGGACAUCCAGCACAGUGAAAUGGACAGAAGGGCAGAGCAA [G5A U7C G8A U10C G15C C16A] | 1.77
20 | AGUUGUUUUUGGGAGCUCCAGCACAGUGAAAUGGACAGAAGGGCAGAGCAA [C6U G8U C9U] | 0.0925
21 | AGUUGCUGCUGGGACCUCCAGCACAGUGAAAUGGACAGAAGGGCAGAGCAA [G15C] | 0.187
22 | AGUUCGCGCCGGGCCCUCCAGCACAGUGAAAUGGACAGAAGGGCAGAGCAA [G5C C6G U7C U10C A14C G15C] | 1.16
23 | AGUUACCACCGGGAGCAGCAGCACAGUGAAAUGGACAGAAGGGCAGAGCAA [G5A U7C G8A U10C U17A C18G] | 2
24 | AGUUCACACAGGCCGCUCCAGCACAGUGAAAUGGACAGAAGGGCAGAGCAA [G5C C6A U7C G8A U10A G13C A14C] | 0.145
25 | AGUUGACGACGGGAGGACCAGCACAGUGAAAUGGACAGAAGGGCAGAGCAA [C6A U7C C9A U10C C16G U17A] | 3.24
26 | AGUUGACGACGGGAGCGUCAGCACAGUGAAAUGGACAGAAGGGCAGAGCAA [C6A U7C C9A U10C U17G C18U] | 1.64

Row | Variant | exon inclusion enrichment index
27 | AGUUCUUCUCGGGAGCUCCAUCACAGUGAAAUGGACAGAAGGGCAGAGCAA [G5C C6U G8C C9U U10C G21U] | 1.22
28 | AGUUACCACCGGGAGCUCUCGCACAGUGAAAUGGACAGAAGGGCAGAGCAA [G5A U7C G8A U10C C19U A20C] | 1.64
29 | AGACCUUCUCGGGAGCUCCAGCACAGUGAAAUGGACAGAAGGGCAGAGCAA [U3A U4C G5C C6U G8C C9U U10C] | 2.23
30 | AGUUGACGACUCGAGCUCCAGCACAGUGAAAUGGACAGAAGGGCAGAGCAA [C6A U7C C9A U10C G11U G12C] | 1.94
31 | AGUUGAAGAAGGGAGCUCCAGCACAGUGAAAUGGACAGAAGGGCAGUACAA [C6A U7A C9A U10A A47U G48A] | 0.579
32 | AGUUCUUCUCGGGAGCUCCAAGACAGUGAAAUGGACAGAAGGGCAGAGCAA [G5C C6U G8C C9U U10C G21A C22G] | 1.93
33 | AGUUGACGACGGGAGCUCCAGCACAGUGAAACGGACAGAAGGGCAGAGCAA [C6A U7C C9A U10C U32C] | 4.44
34 | AGUUCGCGCCGGGAGCUCCGUCACAGUGAAAUGGACAGAAGGGCAGAGCAA [G5C C6G U7C U10C A20G G21U] | 2.65
35 | AGUUAGGGAUGGGAGUACCAGCACAGUGAAAUGGACAGAAGGGCAGAGCAA [G5A C6G U7G C9A C16U U17A] | 0.00236
36 | AUAUAGGGAUGGGAGCUCCAGCACAGUGAAAUGGACAGAAGGGCAGAGCAA [G2U U3A G5A C6G U7G C9A] | 0.0451
37 | AGUUACCACCGGAAGCUCCAGCACAGUGAAAUGGACAGAAGGGCAGAGCAA [G5A U7C G8A U10C G13A] | 2.41
38 | AGUUGAAGAAGGGUCCUCCAGCACAGUGAAAUGGACAGAAGGGCAGAGCAA [C6A U7A C9A U10A A14U G15C] | 0.336
39 | AGUUAUAUAUGGGAGCUCCAGCACAGUGAAAUGGACAGAAGGGCUGAGCAA [G5A C6U U7A G8U C9A A45U] | 0.132
40 | AGUUCACACAGGGAGCUCCAGCACAGUGAAAUGGACAGAAGACCAGAGCAA [G5C C6A U7C G8A U10A G42A G43C] | 1.53
41 | AGUUACCACCGGGAGCUCCAGCACAGUGAAAUGUUCAGAAGGGCAGAGCAA [G5A U7C G8A U10C G34U A35U] | 0.441
42 | AGUUAUAUAUGGGAGGCCCAGCACAGUGAAAUGGACAGAAGGGCAGAGCAA [G5A C6U U7A G8U C9A C16G U17C] | 0.00521
43 | AGUUCGCGCCGGGAGCUCCAGCAGGGUGAAAUGGACAGAAGGGCAGAGCAA [G5C C6G U7C U10C C24G A25G] | 2.96
44 | AGUUCGCGCCGGGAGCUCCAAUACAGUGAAAUGGACAGAAGGGCAGAGCAA [G5C C6G U7C U10C G21A C22U] | 1.87
45 | AGUUGAAGAAGGGAGCUCCAGCACAGUGAAAUGGACAGAAGGGCAGGACAA [C6A U7A C9A U10A A47G G48A] | 0.364
46 | AGUUGACGACGGGAGCUCCAGCACAGUGAAAUGGACAGAAGACCAGAGCAA [C6A U7C C9A U10C G42A G43C] | 4.49
47 | AGUUAUAUAUGGGAGCUCCAGCCAAGUGAAAUGGACAGAAGGGCAGAGCAA [G5A C6U U7A G8U C9A A23C C24A] | 0.0996
48 | AGUUGAAGAAGGGAGCUCCAGCCCAGUGAAAUGGACAGAAGGGCAGAGCAA [C6A U7A C9A U10A A23C] | 0.443
49 | AGUUGAAGAAGGGAGCUCCAGCACAGUGAAAUGGACAGAAGGUCAGAGCAA [C6A U7A C9A U10A G43U] | 0.644
50 | AGUUUCCGUUGGGAGCUCCAGCACAGUGAAAUGGACAGAAGGGCAGAGCAA [G5U U7C C9U] | 0.916
51 | AGUUGAAGAACCGAGCUCCAGCACAGUGAAAUGGACAGAAGGGCAGAGCAA [C6A U7A C9A U10A G11C G12C] | 2.68

From the RNAGym collection of RNA variant scans (doi:10.1101/gr.219683.116)
